Data reported in a protein production outcome set (Wang et al. 2014).

Experiment: label from the status in PepcDB records

| Sequence | protein production |
| --- | --- |
| MLTGLKIAVIGGDARQLEIIRKLTEQQADIYLVGFDQLDHGFTGAVKCNIDEIPFQQIDSIILPVSATTGEGVVSTVFSNEEVVLKQDHLDRTPAHCVIFSGISNAYLENIAAQAKRKLVKLFERDDIAIYNSIPTVEGTIMLAIQHTDYTIHGSQVAVLGLGRTGMTIARTFAALGANVKVGARSSAHLARITEMGLVPFHTDELKEHVKDIDICINTIPSMILNQTVLSSMTPKTLILDLASRPGGTDFKYAEKQGIKALLAPGLPGIVAPKTAGQILANVLSKLLAEIQAEEGK | failed |
| GSSGSSGMKQATRKPTTPGDILLYEYLEPLDLKINELAELLHVHRNSVSALINNNRKLTTEMAFRLAKVFDTTVDFWLNLQAAVDLWEVENNMRTQEELGRIETVAEYLARREERAKKVA | not failed |
| MKRSCMPARSNRNRINSALRGQLLRYLLNGLVATAVHYTILRFTLEVLGLHSAGLANGIAAIFGIIVSFIGNRYFVFRIVQVPLAKQALLFILTYFCIALIHTCILYFWTDVYNLNYTLGFLMATAMQVVFSFFSNKFMVFK | failed |
| MSGMSAAARWTLIASVIAGVSYVASWGLTLPPGVETAWKGAGVGLLAIHAALRARSLDGWLLAAVMALGTGGDVLLETHGLTVGAISFLLGHVVASGLYLRHRNAVSLAPLALIPVVVAVSFLLPTDRAGAPGIALYSLFLAVMAAMALMSRFPFKTVGLGALMFVVSDLLIFGRLGPLPDNLATGLGVWGLYYFGQLLICLGVAGALAHPSTDLPGEGRGPDSA | failed |
| MQFQIGDMVARKSYQMDVLFRIIGIEQTSKGNSIAILHGDEVRLIADSDFSDLVAVKKDEQMMRKKKDESRMNESLELLRQDYKLLREKQEYYATSQYQHQEHYFHMPGKVLHLDGDEAYLKKCLNVYKKIGVPVYGIHCHEKKMSASIEVLLDKYRPDILVITGHDAYSKQKGGIDDLNAYRHSKHFVETVQTARKKIPHLDQLVIFAGACQSHFESLIRAGANFASSPSRVNIHALDPVYIVAKISFTPFMERINVWEVLRNTLTREKGLGGIETRGVLRIGMPYKSN | not failed |
| MRAPGALLARMSRLLLLLLLKVSASSALGVAPASRNETCLGESCAPTVIQRRGRDAWGPGNSARDVLRARAPREEQGAAFLAGPSWDLPAAPGRDPAAGRGAEASAAGPPGPPTRPPGPWRWKGARGQEPSETLGRGNPTALQLFLQISEEEEKGPRGAGISGRSQEQSVKTVPGASDLFYWPRRAGKLQGSHHKPLSKTANGLAGHEGWTIALPGRALAQNGSLGEGIHEPGGPRRGNSTNRRVRLKNPFYPLTQESYGAYAVMCLSVVIFGTGIIGNLAVMCIVCHNYYMRSISNSLLANLAFWDFLIIFFCLPLVIFHELTKKWLLEDFSCKIVPYIEVASLGVTTFTLCALCIDRFRAATNVQMYYEMIENCSSTTAKLAVIWVGALLLALPEVVLRQLSKEDLGFSGRAPAERCIIKISPDLPDTIYVLALTYDSARLWWYFGCYFCLPTLFTITCSLVTARKIRKAEKACTRGNKRQIQLESQMNCTVVALTILYGFCIIPENICNIVTAYMATGVSQQTMDLLNIISQFLLFFKSCVTPVLLFCLCKPFSRAFMECCCCCCEECIQKSSTVTSDDNDNEYTTELELSPFSTIRREMSTFASVGTHC | failed |
| MLIFGFIGLFFLNIFSLHAQGIVTNKDAQEEFKWALNSYNNGIYDDALLSFKKILSFDPNNLDYHFWTGNVYYRLGYVEEALMEWRNLKDQGYKVPYLRHLISTIEQRRGIFSNYELNFKKLVKVASLDNSIYKRPHGYQITSLRADKYGGYYAANFVGNEILYFDVNNNVNALVKDGFSYLKSPYDVIEANNLLYVTLYSSDEIGVYDKVLGVKRKSIGNKGTKDGELLAPQYMAIDKRNYIYVSEWGNKRVSKFGLEGDFILHFGSRTSGYKGLLGPTGVTYLNENIYVADSLRNTIEVFDTSGNHLYSVFTSIEGIEGLSSDFVGNNVIVSSKDGVYKYSIAKKTITKILKADKMNSKISSSILDANNQMIVSDFNNAKVSVYKSDASLYDSLNVDVRRIIRLGGPKIYVELNVSSKSGLPVVGLKSENFSISNENYYIVNPKVAYNVNASKDINIAVVFDKSSYMKKYDTDQIVGLNALMELSKNKNFSFINATSVPIIDNIESLTNSIRNTSSLGPYSTDAVKTDVSLKLAGSGLMSKSSRRAVVYFSGGILNRKAFEKYSLDTIVSYYKNNDIRFYLILFGNDPINSKLQYLVNETGGAVIPFSSYEGVSKVYDLILEQKTGTYLLEYYYPGPQEPNKYFNLSVEANINQQTGRGEFAYFIN | failed |
| MKQEETKRYESFKREFFHWFLAFSGDEPFSVAAGELLMMLKEELALQQAVLYLFDPSCDAFCPEAAAGRMPAAESIVAEEKQEIVVIDDGGPCIVVRLFFLLSEETRAMLELMYGKERHIDREWLKVLRTDLSSLFRKLSALSQRTSEENRYEQLHRFAAKIHSTMQIDDVLEEIICTLQNVYPAFTYHLLLSHDNHVCGNLPIKTLALDESEGQPAALRAFLTGQVQCEETAAPPRSVLYAPIKGVQAVYGVIQIIAPYAAPFPKREINFISLLAGTAGRALENAKLYEQSRRLVADLQLINDTMRQLNARPRLCEAIEYMVSQIKESFGADEVGFFLFADGKRELLRGSTPFFYNDLSALYVEWVEARLLSGNDILFAGDVRTSDFGPFRSIMAAPMMQNKEMKGVCIVLAYETYRFTFEMFKLLQSLVQHSTLAFMNAILREELEKLVVTDYLTKLYTRRYLDEAIQKSMEEDALGSFLLIDIDNFKQINDTYGHQTGDDVLVQVAKMIRTNIRDGDIAARWGGEELAVYLPKVALLDAIAIARRIVEKVREHTVPSVTVSCGLSSWRRHDHDDAEQLFKRADAALYMAKETGKNAIFVHDGDHLYRG | failed |
| GSGCPLLENVISKTINPQVSKTEYKELLQEFIDDNATTNAIDELKECFLNQTDETLSNVEVFMQLIYDSSLCDLF | failed |
| MNITLLKSKIHRASVTEARLDYIGSISIDEKLLQASGILEYEKVQVVNVNNGARFETYTIATQEEGVVCLNGAAARLAEVGDKVIIMSYADFNEEEAKTFKPKVVFVDENNTATKITNYEKHGAIF | not failed |
| MSDIKHEKKLANMDTPGETTKSFENKLDEEIPDIEESDFINSPPFSDEIFSPEDSKQVEISELSKQAYSLLKGNSITEAINVFKKILELDPTNNYALVGLGDAERKNNKFNEAIKFYKQCLEHHPSNNYALFGLADCYKSMNQFPRAIAIWEEYLKFDDKNITVLTRVADAYRKTKEFEKAEKLYQKVLEKSPKNAYALIGLGHLNYDFKKYREALVYWEKVMESSGELVDIRILTSIGNCYRKMKLFDRGVYYFERALERSPDNFYGLFGLADCYRGLNQQYNSIVYWKKILELDPNNKVILTRIGDAYRSMNDFEKAKESYQKALDIDFDSYAMLGLAILCKLQQKYDQAITTLTHLKDTGDTNYNYRVYLELAQCYIEKKEKQKAIETLIDFQKLGIKNQTVSDLLFELTKNDH | failed |
| MKVTFMNLEERKKLETKSIDELDLIGKKVCVDTCVVIDGRITELIERGKLKDATIIIPEAVVSELEYQANMGREIGYKGIEELRKLIEKASEHNIKVEYYGERPTREEIFLAKSGEIDAMIRKVAKETNSILLTSDWIQYNLAKAQGIEAYFLEAAEEEVELVLD | not failed |
| MMSIKWEQEWDRIYKEQGEVQSEILPTVKVEKDIFKRFGCKKVMDLGCGTGRHTIYLAQNGYQVFAVDISETGIEVTRAKAEKLNLTNIEFAQLDMRNLSVDDNLMDAIMCVWTSGHGTFEDARKNLKEMYRILRLGEILVIDYVSREDENYGKGTEIEKNTFINNVEGEENIPHHYFAKEEIEELYTDFSDVDINPVDYYFTDSYGTRHTIKAFVVIAVK | failed |
| MTELFIFDREDQLLTTLTESTGLVRALFREELNRVPNQPFAFTIEASSEEAKHVIEEHQVVFRDKEGDLRLFVIKELEDVDGLDGPQTTAICEPAFMELAEHMIVEQSVVNQPAHEALNVALQGTRWTGSVEVNLGNATEHFSYVSAIEAVWNILVTWGGDFKDVVTFNAENRITSHQIKIVQRRGVDRGKRFEIDHNIEQIERTILSYPVTALYGRGASLQGENGEDGSLDFGEVEWRKSAGAPVDKPKGQLWVGDPEALQKYGRKHNGQLLHREGIFQNTNIEDPEELLEKTWEQLQKSSKPEVHYRLSVRLFEHISGYEHEQASLGDTAIAIDRQFSRPIEIQSRIIAIEYDLVDIDGTGMVEMGQFLSLNGMDERLERIIEEIEKNQGKWGSSGTITRDKYPDIKPSAPVNLRAESGFQAIQLYWDYADELYIEHYEVYGSQVSDFVPDSQHLLWRGKVSAFAHFVDKDQQWYYYVRAVNFHGRPSDWSDKVSGSTQRIISDDILFGPDLAERLRELNRISDIIGEGGVNFEQISDHAKALLNQEARQYTDEEIRAVEDAINAELAEKAGLTYVEGKFSLIDSELEAVDGKFVSVSTQLAEIETEISLKAEQTQVDVIEGEITNVAQDLSQLTVSVNGVQSEVTSIRSGIGHLVEIVNGKATEYKLHFSFNASRDYLVLLTRADLTGARNYVAGTFFGRRVSGNVGSGKIEVIFNNSSNGDRASGYFEASEIQTLNGWSMVTCDYKGEKYIALRHQLPNEHDIWNTDTRFYGQIGSDSEMLLPVDNWGGNPDITNIQPFESSRPVATPIMRAETRIDQNSQQIALRATEINSLAGRMTQAEAELSVQATEIAARVEKDGIVTALNLSPEGIRIKGSLIHLDGTTLINDGVIQNAHIANAAITRAKLDTAVIGTAQIEDLAVTSAKIASVNADKINAASLSAISANLGTVTAGVMRSNNNNMELNLNTGTLNMRNTNFTLGSGADIEFTDPGNRLYFKQYDPVGNITRSAGFGIGRSINDRFPYGFLGTTNTTKPNPIDDQNFTGFITNTNQRMITDGIGNSVVGRIFHIRDQAVSFRKGVAFNFSDSTTMNIFPINTGSYDYVFGSNNNKWKDIHADNIRAAQVYIRNPVGTGGYLFETQPESGSATMVFRGINVSFSDWNYNLGTSSAPWNFGRINHLRPSGSSHSVGSFSERYNFVYTNTLVEGSDIKIKSDIKNSFLGLAFIKDLRPVDFQLVENEQYKTGLIAQEVAAELEHHGIDLEKQTIVTINDSVMGVSYTQLIAPTIKAIQELDSYVRDEVNSLKLENQRLKEKITKLEEKIA | failed |
| ANFADSGKSLPPSMTSVPVTPVAAHTSSTPLTDIAADTTANDAPAIAAEFGQPDWPEEFGRKITWLATQRMQAAELKLHPAHLGPIEISLQLSDDQRLTAQFISHHPAVREAIEANLPRLREIMAENGITLADTSVSADT | not failed |
| MKYLYQQLLAFIGVIALIILIVGTSFTQLTKRTMQENNYEQLYGYAESALETRDFFINVAGVSDRDVLSYSFQLTERVLQKQDVQFVFINKDREVQYPPVDSTKKLDFSLIDKNWDQIMKGNRVYATENIDIYGARNTSSYVMLPVYASNQSSDKKVIIGSLVITQPAKNVDRSVQSVTQNLIKGFIFSGVIALLLSYLFATFQVKRINRMRKATKEITSGNFDIQLPVHDKDEFDDLAEDFNKMAASLKESQEEINRQEERRRQFMADASHEMRTPLTTINGLLEGLQYNAIPENQKENAIKLMQNETARLIRLVNENLDYEKIRTNQIQIVVKKFNGTEALENIVTQLTAKAEAAGNQLYLDTTEPIDVYADYDRFVQVVVNIVQNAIQFTENGEIHIALEKGYLETIVRISDTGIGMTEEQILNIWDRYYKVDPSRKNTKYGESGLGLPIVQQLVRLHKGKINVESELGKGTTFIISFPDVEITEN | not failed |
| MGKYTSEHHKDSRIVQLFQDGQYFYHKGLKAYRERNLSRASKLIQRAIFLEPENTGMLSQLAVIYTEMGFYQQSNELLDFILKNINEKMTECYYFKANNYAHLGLFQEAYKAAETYLKEDPDGEFSEENAELLDLLDMGEEDQGYSQFDQDDLILKQDRAKSLLENGQLQESIAMLEEIISDYPEFWSAYNNLALAYFYAGDVQKAKTTVFTVLEKSHGNLHALCNLLIFYHYERRDDKVEALSEQLSNIYPMLFEQRYKLGATLALVGRYDLGFKWLKSLYRMGFEGDETFYYWLACSAYYTGRVQFARSVWKKMQEEYPDDARMEPWKERKEKRPVQRPLEERLAAYYISGRKGEKAQLKAVLDSQMAKTPFEDQFVRLVLYGESGAAVDSKDALLAYRTAKAIEQADQSAMEQEAMCFWIFHVIQQIRAYGLQLKNAGGLAAAIYYIWKTEHQERLTKAETAKIFQISPGTLSKYERTLKEHL | failed |
